For 1 molecule, binding signal and Kd results are on record in article PMC3695512, “Recognition of two distinct elements in the RNA substrate by the RNA-binding domain of the T. thermophilus DEAD box helicase Hera”.

The target in one series is T1, Hera_RBD A452C (Thermus thermophilus, UniProt O07897 424-510, A452C).
T1 sequence: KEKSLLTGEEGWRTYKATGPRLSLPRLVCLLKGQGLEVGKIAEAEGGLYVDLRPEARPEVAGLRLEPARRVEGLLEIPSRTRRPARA
In words: fluorescence anisotropy; 5 mM Mg2+; Anisotropy: 50 mM Tris/HCl pH 7.5, 150 mM NaCl, 5 mM MgCl2 (Fig 2), 25 C, 50 nM RNA; EMSA: same Tris/NaCl, 12% glycerol, 25 C; NMR: 25 mM Bis-Tris/HCl pH 6.0, 50 mM NaCl, 10% D2O, 37 C. Conditions: protein: recombinant; label: 5'-fluorescein; hairpin with 5' single strand. (In fluorescence polarisation assays a small probe gives low polarisation when free and higher when bound to something large.)

Another series addresses T2, Hera_RBD K463A (Thermus thermophilus, UniProt O07897 424-510, K463A).
T2 sequence: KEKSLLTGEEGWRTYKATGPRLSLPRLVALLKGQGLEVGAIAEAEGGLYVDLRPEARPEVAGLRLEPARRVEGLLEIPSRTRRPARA
In words: fluorescence anisotropy; 5 mM Mg2+; text also says abolishes binding; Anisotropy: 50 mM Tris/HCl pH 7.5, 150 mM NaCl, 5 mM MgCl2 (Fig 2), 25 C, 50 nM RNA; EMSA: same Tris/NaCl, 12% glycerol, 25 C; NMR: 25 mM Bis-Tris/HCl pH 6.0, 50 mM NaCl, 10% D2O, 37 C. As to conditions: protein: recombinant; label: 5'-fluorescein; hairpin with 5' single strand.

Another series has as its target T3, Hera_RBD_dC-tail (Thermus thermophilus, UniProt O07897 424-491, del492-510).
T3 sequence: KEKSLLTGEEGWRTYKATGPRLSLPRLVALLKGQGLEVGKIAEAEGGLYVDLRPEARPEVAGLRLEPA
The series is described as follows: fluorescence anisotropy; 5 mM Mg2+; Anisotropy: 50 mM Tris/HCl pH 7.5, 150 mM NaCl, 5 mM MgCl2 (Fig 2), 25 C, 50 nM RNA; EMSA: same Tris/NaCl, 12% glycerol, 25 C; NMR: 25 mM Bis-Tris/HCl pH 6.0, 50 mM NaCl, 10% D2O, 37 C. As to conditions: protein: recombinant; label: 5'-fluorescein; hairpin with 5' single strand.

The next series concerns the target T4, Hera_K463A (Thermus thermophilus, UniProt O07897 1-510, K463A).
T4 sequence: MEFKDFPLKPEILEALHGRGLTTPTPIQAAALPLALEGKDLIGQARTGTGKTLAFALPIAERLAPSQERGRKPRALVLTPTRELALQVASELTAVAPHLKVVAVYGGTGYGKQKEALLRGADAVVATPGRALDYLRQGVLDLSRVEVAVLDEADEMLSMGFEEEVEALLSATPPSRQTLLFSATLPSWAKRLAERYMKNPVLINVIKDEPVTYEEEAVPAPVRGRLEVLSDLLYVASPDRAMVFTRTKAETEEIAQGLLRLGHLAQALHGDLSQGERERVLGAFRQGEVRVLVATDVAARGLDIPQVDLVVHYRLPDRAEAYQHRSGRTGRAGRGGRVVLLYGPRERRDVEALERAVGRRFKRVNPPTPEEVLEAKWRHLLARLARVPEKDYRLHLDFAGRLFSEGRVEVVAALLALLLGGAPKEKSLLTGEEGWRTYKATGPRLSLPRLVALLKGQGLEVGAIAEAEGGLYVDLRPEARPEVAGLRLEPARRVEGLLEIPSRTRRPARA
Described as above. As to conditions: protein: recombinant; chain copies: 2; label: 5'-fluorescein; hairpin with 5' single strand.

A further series concerns the target T5, Hera_1-491 (Thermus thermophilus, UniProt O07897 1-491, del492-510).
T5 sequence: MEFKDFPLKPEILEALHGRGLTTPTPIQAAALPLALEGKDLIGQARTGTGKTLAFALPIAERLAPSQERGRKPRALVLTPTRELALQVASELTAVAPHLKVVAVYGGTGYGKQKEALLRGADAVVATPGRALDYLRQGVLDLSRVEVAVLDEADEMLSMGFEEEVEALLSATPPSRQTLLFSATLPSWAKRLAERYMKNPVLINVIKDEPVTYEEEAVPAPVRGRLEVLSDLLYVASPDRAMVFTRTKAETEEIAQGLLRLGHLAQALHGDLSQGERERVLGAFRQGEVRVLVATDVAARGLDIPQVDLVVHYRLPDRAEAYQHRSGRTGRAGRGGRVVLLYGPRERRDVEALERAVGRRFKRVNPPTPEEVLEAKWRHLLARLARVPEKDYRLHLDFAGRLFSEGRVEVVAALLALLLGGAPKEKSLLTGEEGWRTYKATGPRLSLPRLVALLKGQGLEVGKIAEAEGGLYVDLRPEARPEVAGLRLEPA
The series is described as above. As to conditions: protein: recombinant; chain copies: 2; label: 5'-fluorescein; hairpin with 5' single strand.

Another series has as its target T6, Hera_208-419 (RecA_C_DD) (Thermus thermophilus, UniProt O07897 208-419).
T6 sequence: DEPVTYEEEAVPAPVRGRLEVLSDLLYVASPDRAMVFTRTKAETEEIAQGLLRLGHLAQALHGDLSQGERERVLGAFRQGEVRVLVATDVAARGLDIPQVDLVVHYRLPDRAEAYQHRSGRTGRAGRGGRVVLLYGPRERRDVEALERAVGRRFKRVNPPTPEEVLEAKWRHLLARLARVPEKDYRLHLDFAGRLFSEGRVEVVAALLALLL
The series is described as follows: fluorescence anisotropy; 5 mM Mg2+; compared with full-length Hera; Anisotropy: 50 mM Tris/HCl pH 7.5, 150 mM NaCl, 5 mM MgCl2 (Fig 2), 25 C, 50 nM RNA; EMSA: same Tris/NaCl, 12% glycerol, 25 C; NMR: 25 mM Bis-Tris/HCl pH 6.0, 50 mM NaCl, 10% D2O, 37 C. Conditions: protein: recombinant; chain copies: 2; label: 5'-fluorescein; hairpin with 5' single strand.

What is called Kd is the concentration at which binding is half-saturated. Take GCAGGUCCCAAGGGUUGGGCUGUUCGCCCAUU (structured_RNA) [32mer]: the binding signal with Hera_RBD A452C was ~10 fold Kd increase; with Hera_RBD K463A, > 25 fold Kd increase; in the series with Hera_208-419 (RecA_C_DD), ~70 fold Kd increase. Also, the figures for the Kd in the series with Hera_RBD_dC-tail, with Hera_K463A and with Hera_1-491 were 13 µM, 1000 ± 170 nM and 1100 ± 130 nM, respectively.
